Measurements as given in the RNAGym collection of RNA variant scans (doi:10.1093/nar/gkz1192).

B1: CPEB3 Ribozyme (parent)
chain: UAACAGGGGGCCACAGCAGAAGCGUUCACGUCGCAGCCCCUGUCAGAUUCUGGUGAAUCUGCGAAUUCUGCUGUAUAUCUC

Variants of: B1
Assay: self-cleavage, relative activity (ratio to wild type); higher = more cleavage; in vitro, sequencing
Method in brief: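 Barcoded CPEB3 ribozyme mutants, produced by rounds of error-prone PCR, self-cleaved while being transcribed with T7 RNA polymerase for 5 hours at 37°C and during a subsequent 15 min DNase I step before EDTA was added. Sequencing of template-switched cDNA on Illumina gave cleaved and total reads, and DNA sequencing assigned barcodes to variants. Each variant's relative activity is its cleaved/total read fraction divided by the unmutated ribozyme's fraction, averaged across three batches. A variant needed a minimum of 5 reads.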

Variant | self-cleavage
C40A U60G | 0.2
C40A U66C | 0.18
C40A U67C | 0.28
C40A U69C | 0.25
C40A U69G | 0.11
C40A U72C | 0.37
C40A U72G | 0.41
C40A U74A | 0.3
C40A U76A | 0.28
C40A U76C | 0.38
C40A U78A | 0.22
C40A U78C | 0.18
C40A U80A | 0.26
C40A U80C | 0.24
C40G | 0.29
C40G A56U | 0.42
C40G A65G | 0.35
C40G A77G | 0.08
C40G U41A | 0.26
C40G U41C | 0.32
C40G U41G | 0.6
C40G U43C | 0.16
C40G U48A | 0.67
C40G U48C | 0.13

Variant | self-cleavage
C40G U54C | 0.2
C40G U54G | 0.29
C40G U60A | 0.11
C40G U60C | 0.16
C40G U66C | 0.22
C40G U72C | 0.48
C40G U72G | 0.16
C40G U78C | 0.38
C40G U80C | 0.19
C40U | 0.76
C40U A45C | 0.17
C40U A45G | 0.55
C40U A45U | 0.15
C40U A47G | 0.5
C40U A47U | 0.32
C40U A56C | 0.32
C40U A56G | 0.48
C40U A56U | 0.32
C40U A57C | 0.46
C40U A57G | 0.36
C40U A57U | 0.61
C40U A64G | 0.54
C40U A64U | 0.27
C40U A65G | 0.27

Variant | self-cleavage
C40U A65U | 0.37
C40U A75G | 0.5
C40U A75U | 0.74
C40U A77C | 0.74
C40U A77G | 0.58
C40U A77U | 0.81
C40U C44A | 0.52
C40U C50A | 0.46
C40U C59U | 0.28
C40U C68G | 0.28
C40U C71A | 0.17
C40U C79G | 1.24
C40U G42A | 0.27
C40U G46A | 0.18
C40U G53A | 0.84
C40U G55A | 0.67
C40U G55U | 0.49
C40U G61A | 0.42
C40U G70U | 0.16
C40U G73C | 1.22
C40U U41A | 0.25
C40U U41C | 0.92
C40U U41G | 0.16
C40U U43A | 0.92

Variant | self-cleavage
C40U U43C | 0.39
C40U U48C | 0.25
C40U U49A | 0.2
C40U U49C | 0.36
C40U U51A | 0.84
C40U U51C | 0.65
C40U U51G | 0.49
C40U U54A | 1.08
C40U U54C | 0.7
C40U U54G | 0.6
C40U U58A | 0.3
C40U U58C | 0.24
C40U U60A | 0.34
C40U U60C | 0.3
C40U U60G | 0
C40U U66A | 0.23
C40U U66C | 0.33
C40U U67C | 0.23
C40U U69A | 0.41
C40U U69C | 0.36
C40U U69G | 0.57
C40U U72A | 0.39
C40U U72C | 0.9
C40U U72G | 0.32

Variant | self-cleavage
C40U U74C | 1.08
C40U U74G | 1.04
C40U U76C | 0.92
C40U U78A | 0.75
C40U U78C | 0.56
C40U U80A | 0.67
C40U U80C | 0.76
U41A | 0.3
U41A A45C | 0.18
U41A A45G | 0.24
U41A A45U | 0.2
U41A A47C | 0.18
U41A A47G | 0.29
U41A A47U | 0.3
U41A A56G | 0.24
U41A A56U | 0.29
U41A A57C | 0.4
U41A A57G | 0.25
U41A A57U | 0.13
U41A A64C | 0.15
U41A A64G | 0.28
U41A A64U | 0.29
U41A A65G | 0.25
U41A A65U | 0.17

Variant | self-cleavage
U41A A75C | 0.31
U41A A75G | 0.27
U41A A75U | 0.4
U41A A77C | 0.15
U41A A77G | 0.31
U41A A77U | 0.31
U41A C44A | 0.15
U41A C44U | 0.23
U41A C59A | 0.13
U41A C59U | 0.06
U41A C62A | 0.34
U41A C62U | 0.16
U41A C68A | 0.17
U41A C71G | 0.1
U41A C71U | 0.24
U41A C79A | 0.32
U41A C79G | 0.37
U41A C79U | 0.41
U41A C81A | 0.22
U41A C81G | 0.25
U41A C81U | 0.25
U41A G42A | 0.37
U41A G42C | 0.21
U41A G42U | 0.27

Variant | self-cleavage
U41A G46A | 0.3
U41A G46U | 0.29
U41A G52A | 0.19
U41A G52C | 0.67
U41A G52U | 0.21
U41A G53A | 0.38
U41A G53C | 0.23
U41A G55A | 0.19
U41A G55C | 0.34
U41A G55U | 0.2
U41A G61U | 0.24
U41A G63A | 0.35
U41A G63C | 0.26
U41A G63U | 0.3
U41A G70U | 0.12
U41A G73A | 0.45
U41A G73C | 0.17
U41A G73U | 0.42
U41A U43A | 0.24
U41A U43C | 0.27
U41A U43G | 0.4
U41A U48A | 0.22
U41A U48C | 0.23
